Assay results published in publication PMC3953333, “Sterol Regulatory Element-Binding Proteins Are Regulators of the Rat Thyroid Peroxidase Gene in Thyroid Cells”.

Experiments:
[1] = target: T1, nuclear SREBP-1c (nSREBP-1c) (rat, UniProt P56720-1 1-456); test: EMSA; EMSA with DIG-labeled annealed oligonucleotides (Roche DIG Gel Shift Kit, 2nd Generation) and TNT T7 in vitro-translated proteins; buffer, salt, pH and temperature not stated (ref 19); details: protein: ivt, chain copies: 2, label: DIG end-label
T1 sequence: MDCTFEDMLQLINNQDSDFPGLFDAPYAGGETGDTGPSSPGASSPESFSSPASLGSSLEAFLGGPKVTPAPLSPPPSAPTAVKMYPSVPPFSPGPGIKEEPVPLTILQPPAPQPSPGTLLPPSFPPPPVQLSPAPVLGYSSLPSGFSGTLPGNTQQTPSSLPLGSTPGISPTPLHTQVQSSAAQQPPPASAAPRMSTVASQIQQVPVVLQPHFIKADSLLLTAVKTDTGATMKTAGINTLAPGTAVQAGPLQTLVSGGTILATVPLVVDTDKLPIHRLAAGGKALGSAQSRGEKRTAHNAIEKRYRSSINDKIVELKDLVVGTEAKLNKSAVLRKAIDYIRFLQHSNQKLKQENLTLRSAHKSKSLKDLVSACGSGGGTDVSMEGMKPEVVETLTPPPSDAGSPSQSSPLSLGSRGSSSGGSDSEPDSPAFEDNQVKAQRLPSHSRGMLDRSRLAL

[2] = target: T2, nuclear SREBP-2 (nSREBP-2) (rat, UniProt Q3T1I5 1-476); test: as above; details: protein: ivt, chain copies: 2, label: DIG end-label
T2 sequence: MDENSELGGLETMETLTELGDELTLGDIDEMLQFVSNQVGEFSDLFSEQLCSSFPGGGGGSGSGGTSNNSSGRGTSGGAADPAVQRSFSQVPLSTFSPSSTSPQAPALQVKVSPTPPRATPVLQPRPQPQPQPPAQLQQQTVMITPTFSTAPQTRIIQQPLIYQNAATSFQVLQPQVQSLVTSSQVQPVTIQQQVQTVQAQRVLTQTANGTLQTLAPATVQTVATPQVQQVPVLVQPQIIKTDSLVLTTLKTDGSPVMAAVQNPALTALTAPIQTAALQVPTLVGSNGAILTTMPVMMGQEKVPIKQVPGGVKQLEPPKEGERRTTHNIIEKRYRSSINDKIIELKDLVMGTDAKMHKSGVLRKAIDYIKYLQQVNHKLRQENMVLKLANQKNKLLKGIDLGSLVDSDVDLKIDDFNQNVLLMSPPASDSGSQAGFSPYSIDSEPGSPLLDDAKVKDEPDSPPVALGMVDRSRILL

[3] = 5' overhangs 4 nt (AGCT / TCGA)
[4] = 5' overhangs 4 nt (GATC / TCGA)

B1: rTPO III mut5 (dsDNA)
DNA 1: AGCTTCGTTTCAGAAAGTCAGCAGAATACT
DNA 2: TCGAAGTATTCTGCTGACTTTCTGAAACGA
B1: binds [1, 3]; binds [2, 3].

B2: rTPO VI mut6 (dsDNA)
DNA 1: AGCTTGTAACTCTCCTCAGGTGGGTCCTCCCAAGT
DNA 2: TCGAACTTGGGAGGACCCACCTGAGGAGAGTTACA
B2: binds [1, 3]; binds [2, 3].

B3: rTPO IVmut (dsDNA)
DNA 1: AGCTATACTGTGTTACTTACCATA
DNA 2: TCGATATGGTAAGTAACACAGTAT
B3: no binding [1, 3].

B4: rTPO VI mut5 (dsDNA)
DNA 1: AGCTCAGGCGGAAACTCAGGTGGGTCCTCCCAAGT
DNA 2: TCGAACTTGGGAGGACCCACCTGAGTTTCCGCCTG
B4: binds [1, 3]; binds [2, 3].

B5: rTPO III mut2 (dsDNA)
DNA 1: AGCTGATAATCAGAAAGTCGTATTAATACT
DNA 2: TCGAAGTATTAATACGACTTTCTGATTATC
B5: no binding [1, 3]; no binding [2, 3].

B6: rTPO V (dsDNA)
DNA 1: AGCTGTGGGATGTACCATAAATACCCAGG
DNA 2: TCGACCTGGGTATTTATGGTACATCCCAC
B6: no binding [1, 3]; no binding [2, 3].

B7: rTPO VI mut4 (dsDNA)
DNA 1: AGCTCAGGCCTCTCAGATAGTGGGTCCTCCCAAGT
DNA 2: TCGAACTTGGGAGGACCCACTATCTGAGAGGCCTG
B7: no binding [1, 3]; no binding [2, 3].

B8: rTPO VI mut2 (dsDNA)
DNA 1: AGCTCAGGCCTCTCCTCAGGTGGGGTTGACCAAGT
DNA 2: TCGAACTTGGTCAACCCCACCTGAGGAGAGGCCTG
B8: binds [1, 3]; binds [2, 3].

B9: rTPO II (dsDNA)
DNA 1: AGCTTTGCAGTGGGGAAGAGATAA
DNA 2: TCGATTATCTCTTCCCCACTGCAA
B9: no binding [1, 3]; no binding [2, 3].

B10: rTPO I (dsDNA)
DNA 1: GATCTCTGGGGTTGCAGTGGGGAAGA
DNA 2: TCGATCTTCCCCACTGCAACCCCAGA
B10: no binding [1, 4]; no binding [2, 4].

B11: rTPO III mut1 (dsDNA)
DNA 1: AGCTGATAATCAGAAAGTCAGCAGTTCTAG
DNA 2: TCGACTAGAACTGCTGACTTTCTGATTATC
B11: binds [1, 3]; binds [2, 3].

B12: rTPO III mut4 (dsDNA)
DNA 1: AGCTGATAAGATTCAAGTCAGCAGAATACT
DNA 2: TCGAAGTATTCTGCTGACTTGAATCTTATC
B12: binds [1, 3]; binds [2, 3].

B13: rTPO IV (dsDNA)
DNA 1: AGCTATACTGTGGGATGTACCATA
DNA 2: TCGATATGGTACATCCCACAGTAT
B13: binds [1, 3]; no binding [2, 3].

B14: rTPO III (dsDNA)
DNA 1: AGCTGATAATCAGAAAGTCAGCAGAATACT
DNA 2: TCGAAGTATTCTGCTGACTTTCTGATTATC
B14: binds [1, 3]; binds [2, 3].

B15: rTPO III mut3 (dsDNA)
DNA 1: AGCTGATAATCAGATTCGAAGCAGAATACT
DNA 2: TCGAAGTATTCTGCTTCGAATCTGATTATC
B15: no binding [1, 3]; no binding [2, 3].

B16: rTPO VI (dsDNA)
DNA 1: AGCTCAGGCCTCTCCTCAGGTGGGTCCTCCCAAGT
DNA 2: TCGAACTTGGGAGGACCCACCTGAGGAGAGGCCTG
B16: binds [1, 3]; binds [2, 3].

B17: rTPO VI mut1 (dsDNA)
DNA 1: AGCTCAGGCCTCTCCTCAGGTGGGTCCTCATGGCT
DNA 2: TCGAAGCCATGAGGACCCACCTGAGGAGAGGCCTG
B17: binds [1, 3]; binds [2, 3].

B18: rTPO VI mut3 (dsDNA)
DNA 1: AGCTCAGGCCTCTCCTCAGACTAATCCTCCCAAGT
DNA 2: TCGAACTTGGGAGGATTAGTCTGAGGAGAGGCCTG
B18: binds [1, 3]; binds [2, 3].
